test: soluble on expression in E. coli; label from the status in PepcDB or PDB records

For “MKEVLRVRTTKHTSIVNITQQVDQVVKKSGVREGICVVYTPHTTACVFVNEGADPDVVRDIVYSLEKLIPWNDPSYAHMEGNSAAHIRSAIIGNSRVIPIIDGELALGTWESIFLADFDGPRERKVIVVVLGEKLEHHHHHH”, which “soluble on expression in E. coli” value is on record?
Its value is “not soluble”.

For “MKFAIFVNTTREKALELARELTAWLDARSIDYVFDPQSAKALGCGKWEEKADLSQHCDAFVALGGDGTLLLASHYSRSKPVVGINVGDLGFLTEFSPDEMWVAMDHLVSGNYSIHTRSQLEATLESGESLTSLNDVIFEKGSAARRLPAFTILLDDEMLGSYRADGIIIATSTGSTAYSMSAGGPIIAPKSNVFVITPICPHMLTVRPIVISDDKTIKISVDSQSGEFPLKMDGIQKKLLAPGEVVTVKKSPHHINLVANEKRNYCEILRKKLLWSHEHPTGELEHHHHHH”, which “soluble on expression in E. coli” value is on record?
The value was “not soluble”.

Which “soluble on expression in E. coli” value does the source give for “MKFALQINEGPYQHQASDSAYQFAKAALEKGHEIFRVFFYHDGVNNSTRLTTPPQDDRHIVNRWAELAEQYELDMVVCVAAAQRRGIVDEGEASRNGKDATNIHPKFRISGLGQLVEAAIQADRLVVFGD” here?
Its value is “soluble”.

For “MKFAVVVFPGSNCDVDMYHAIADELGEEVEYVWHDEDDLDRFDAILLPGGFSYGDYLRSGAIARFSKVMAAVKKAAEAGKPVLGVCNGFQILLEAGLLPGAMRRNQGLKFICRPVQLTVENHETIFTSAYEKGEVITIPIAHGEGNYYCDEQTLERLVENRQIVFRYHGENPNGSLADIAGIVNERGNVLGMMPHPERAVDALLGSADGLKLFRSIVNYWRETHVVTA”, which “soluble on expression in E. coli” value is on record?
The value was “not soluble”.

For “MKFGWIKTTGNDLEERMESVKDALESSIPGIIAEKEEISSVRELGNIKIVSDNLDADVVLINKGEDLEILKSAKLSGKETGVYVVINTKEDEVYATDVSKLDFVDYVVLEGSDWTIIPLENIIADLFSEEIKIVSVVTNVKDAEAAYEILEKGVDGVVLIPKDINEVKDFSKLIERMNSESVKLDYATVTKIEPVGSGDRVCIDTCSMMEMGEGMLIGSYSRGMFLVHSETVENPYVATRPFRVNAGPVHAYILCPENKTKYLSDLKAGDKVLVVNKNGETREAIIGRVKIEKRPLFLVEAEYNGENLRTILQNAETIRLVGEDGKPVSVVDLKVGTKVLIKPDENARHFGMAIKETIIEKLEHHHHHH”, which “soluble on expression in E. coli” value is on record?
The value was “soluble”.

With “MKFQWIGVLVFIGIVNCLISSQKLTVKENEERLKSCGNTFLPIPSINQTGKGFGFFNDKTYTYNSKSGWLLLAGHKNRSTRVYATAFPISEYHILISSRVMLTAEHKWIMNGKPFDKNNCSGGRHLDVPRDVLDNILFWYGKKPKKADISKARMFFACDNQDLKAYPVLIELNKTSKRPWAFNGVPCLADETTSSKLGDVVHFYGYSDYDLLHHKLLIKAVKDGGICTETYYTEEVGGPLVQNVSGKATVIGLKAPGSRENCELFYDLSKLQKEICDYSGVCGYEKPTLTTEPTPVTTEKSTVSTTISTSLETTIMQASSASPTSIKPSTTTEPSPLQASSKPATEPLLRPESTRRASSSASSKPEVQTTIPTEIRTSSLPTPFLKTSTTVTTTTPEPATVDYGDDHDMIGLDDEYGDESNKGVGKIDRIVGFFVLLLVIE” as the sequence, how does the “soluble on expression in E. coli” value read?
Its value is “not soluble”.

With “MKFTWYGQSCFLIETSRNKKILLDPFNNSIGYPTFKGEADIITVSHHHFDHDFIDCVTNSPKVIDKPGDYKIDDITIKGIPSFHDNVHGAARGENTIFLFNIDGFNVCHLGDIGYVLSDLEVKSLGNVDVLMIPVGGNFTIDGAEAGQLCKKINSNIILPMHYKTTFTILPLEGAEKFIMSMKNAERLQSNVLTLDTKTNEKNQVKIFSIKLEHHHHHH” as the sequence, how does the “soluble on expression in E. coli” value read?
Its value is “not soluble”.

Which “soluble on expression in E. coli” value does the source give for “MKGFGMFRFRRTFVPQIDMRNCGVAALASVAKYYGSDYSLAHLRELAKTNKEGTTALGLVEAAKKIGFETRAIKAEMSLFEMEDVPYPFIAHVNKDGKLQHYYVIYKSTKDYLIIGDPDPSVKVTKMTKERFEKEWTGVTLFMGPEPS” here?
Its value is “not soluble”.

With “MKGNALCTGEPVMTIETRGGGSEDIAVLPLDPTGNITRLFIRERCNDSSDPECKTGQWRLGSVDISRENTPASTRYAWRPGNNASEDDFEPLGMSLVPGNTPGEGTLFVIDIARPQSVRIWQLDISGGEITKATLATPADTQTGARLTAANSLQAVRNDDSRSFHLTITRFDEYGLLPFRPTPWPALVRINNGVIQPPPAQDFRNANGIIRPCAGCDLVIASYWERRLRFVSKENGEIGEYASAELPIRPDNLRLDGERILIAGQRRVDLTALNLLVSPHIPSPSGVYAIDTRSLGPDTVPTLLWEGGWKHGHSVATAVALPGNRLAIGQINTPGILIADCSPLEHHHHHH” as the sequence, how does the “soluble on expression in E. coli” value read?
The value was “not soluble”.

Source: the DeepSol protein solubility set
